What was measured:
[1] = target: Ubiquitin, human, recombinant (tag-free mono-Ub) (human, UniProt P0CG48 1-76); experiment: MST
[2] = target: Ubiquitin, human, recombinant, His-tag (His6-Ub) (human, UniProt P0CG48 1-76); experiment: MST

B1: HDAC6-EGFP WT (full-length human histone deacetylase 6 fused to EGFP) (enzyme)
chain: MTSTGQDSTTTRQRRSRQNPQSPPQDSSVTSKRNIKKGAVPRSIPNLAEVKKKGKMKKLGQAMEEDLIVGLQGMDLNLEAEALAGTGLVLDEQLNEFHCLWDDSFPEGPERLHAIKEQLIQEGLLDRCVSFQARFAEKEELMLVHSLEYIDLMETTQYMNEGELRVLADTYDSVYLHPNSYSCACLASGSVLRLVDAVLGAEIRNGMAIIRPPGHHAQHSLMDGYCMFNHVAVAARYAQQKHRIRRVLIVDWDVHHGQGTQFTFDQDPSVLYFSIHRYEQGRFWPHLKASNWSTTGFGQGQGYTINVPWNQVGMRDADYIAAFLHVLLPVALEFQPQLVLVAAGFDALQGDPKGEMAATPAGFAQLTHLLMGLAGGKLILSLEGGYNLRALAEGVSASLHTLLGDPCPMLESPGAPCRSAQASVSCALEALEPFWEVLVRSTETVERDNMEEDNVEESEEEGPWEPPVLPILTWPVLQSRTGLVYDQNMMNHCNLWDSHHPEVPQRILRIMCRLEELGLAGRCLTLTPRPATEAELLTCHSAEYVGHLRATEKMKTRELHRESSNFDSIYICPSTFACAQLATGAACRLVEAVLSGEVLNGAAVVRPPGHHAEQDAACGFCFFNSVAVAARHAQTISGHALRILIVDWDVHHGNGTQHMFEDDPSVLYVSLHRYDHGTFFPMGDEGASSQIGRAAGTGFTVNVAWNGPRMGDADYLAAWHRLVLPIAYEFNPELVLVSAGFDAARGDPLGGCQVSPEGYAHLTHLLMGLASGRIILILEGGYNLTSISESMAACTRSLLGDPPPLLTLPRPPLSGALASITETIQVHRRYWRSLRVMKVEDREGPSSSKLVTKKAPQPAKPRLAERMTTREKKVLEAGMGKVTSASFGEESTPGQTNSETAVVALTQDQPSEAATGGATLAQTISEAAIGGAMLGQTTSEEAVGGATPDQTTSEETVGGAILDQTTSEDAVGGATLGQTTSEEAVGGATLAQTTSEAAMEGATLDQTTSEEAPGGTELIQTPLASSTDHQTPPTSPVQGTTPQISPSTLIGSLRTLELGSESQGASESQAPGEENLLGEAAGGQDMADSMLMQGSRGLTDQAIFYAVTPLPWCPHLVAVCPIPAAGLDVTQPCGDCGTIQENWVCLSCYQVYCGRYINGHMLQHHGNSGHPLVLSYIDLSAWCYYCQAYVHHQALLDVKNIAHQNKFGEDMPHPH
- Kd [1]: 1250 ± 147 nM
- Kd [2]: 69 nM

From paper doi:10.1101/203372 (bioRxiv, 2017)
